According to patent US20050143472A1, “Novel treatment for pathologies associated with oxidative damage” (priority 2002, published 2005):

Substrate: NCCCNCCCCNCCCN
Test: purified protein, by the assay type
Conditions: other: apparent value, air-saturated 50 mM KH2PO4/KOH buffer pH 7.6, [O2] 237 μM

B1: mPAO (Mus musculus) (protein)
chain: MAFPGPRVLVVGSGIAGLGAAQKLCSHRAAPHLRVLEATASAGGRIRSERCFGGVVELGAHWIHGPSQDNPVFQLAAEFGLLGEKELSEENQLVDTGGHVALPSMIWSSSGTSVSLELMTEMARLFYGLIERTREFLNESETPMASVGEFLKKEISQQVASWTEDDEDTRKRKLAILNTFFNIKCCVSGTHSMDLVALAPFGEYTVLPGLDCILAGGYQGLTDRILASLPKDTVAFDKPVKTIHWNGSFQEAAFPGETFPVLVECEDGARLPAHHVIVTVPLGFSKEHQDTFFEPPLPAKKAEAIKKLGFGTNNKIFLEFEEPFWEPDCQFIQVVWEDTSPLQDTALSLQDTWFKKLIGFLVQPSFESSHVLCGFIAGLESEFMETLSDEEVLLSLTQVLRRVTGNPQLPAAKSVLSSRWHSAPYTRGSYSYVAVGSTGDDLDLMAQPLPADGTGTQLQVLFAGEATHRTFYSTTHGALLSGWREADRLIGLWDSQAEQSRPRL
For B1, the kcat was 0.175 s⁻¹ and the kcat/Km was 247 M⁻¹ s⁻¹.
